According to patent US20180072806A1 (SHIRE HUMAN GENETIC THERAPIES, published 2018):

Assays:
[1] = target: T1, recombinant human soluble Flt-1 (human, UniProt P17948 27-758); assay: human competition ELISA with human sFlt-1 and VEGF; blocked ligand VEGF; antibody titrated
T1 construct: Recombinant soluble form (immunogen bought from ABCAM); also called human sFlt-1; sFlt-1

[2] = target: T1, recombinant human soluble Flt-1; assay: VEGF:sFlt1 binding assay (competition ELISA); blocked ligand VEGF; antibody titrated

T1 sequence (P17948 27-758 limits assumed): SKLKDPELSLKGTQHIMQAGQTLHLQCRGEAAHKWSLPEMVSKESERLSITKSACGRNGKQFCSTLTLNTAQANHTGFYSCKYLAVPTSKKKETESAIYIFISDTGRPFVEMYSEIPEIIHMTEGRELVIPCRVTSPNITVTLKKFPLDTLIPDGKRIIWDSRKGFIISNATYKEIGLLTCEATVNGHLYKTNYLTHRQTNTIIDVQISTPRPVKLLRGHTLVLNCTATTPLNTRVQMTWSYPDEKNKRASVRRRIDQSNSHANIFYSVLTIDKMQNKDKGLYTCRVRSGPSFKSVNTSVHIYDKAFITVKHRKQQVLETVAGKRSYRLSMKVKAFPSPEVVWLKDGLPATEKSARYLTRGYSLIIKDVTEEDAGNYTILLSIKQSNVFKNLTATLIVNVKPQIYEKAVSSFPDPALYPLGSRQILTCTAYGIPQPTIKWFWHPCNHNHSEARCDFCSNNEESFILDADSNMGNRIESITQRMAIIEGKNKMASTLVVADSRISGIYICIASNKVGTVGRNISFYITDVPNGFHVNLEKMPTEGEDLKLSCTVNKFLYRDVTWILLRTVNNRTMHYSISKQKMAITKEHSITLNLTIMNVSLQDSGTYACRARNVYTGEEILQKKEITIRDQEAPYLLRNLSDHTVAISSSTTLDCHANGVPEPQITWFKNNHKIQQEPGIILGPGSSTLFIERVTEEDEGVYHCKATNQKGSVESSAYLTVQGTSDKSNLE

Row | IC50 (read off the curve) [1] [ng/mL] | IC50 (read off the curve) [2] [ng/mL] | Binder
1 | ~3 | – | anti-Flt-1 antibody 21B3 (antibody, V domains shown, VL is LC_21B3; IgG with wild-type Fc; also called 21B3 WT; clone 21B3) VH: ELQLVESGGGLVQPGGSLRLSCAASGFTFRDYSMSWVRQAPGKGLEWVSAISWNGDSTYYAESMKGRFTISRDNAKNTLYLQMNSLKSEDTAVYYCAKSWATPIESLYYYGMDYWGKGTLVTVSS VL: SYELTQSPSVSVALRQTAKITCGGNNIGSQTAQWYQQKPGQAPVLVIYANNRRPSGIPERFSGSKSGNTATLTISGAQAEDEADYYCQVWDGSTQAIVFGGGTHLTVL
2 | – | ~10 | anti-Flt-1 antibody 27H9 (antibody, human IgG1, lambda, V domains shown, also called 27H9 WT; 27H9 WT 23/07) VH: EVQLLESGGGLVQPGGSLRLSCAASGFTFRDYSMSWVRQAPGKGLEWVSAISWNGDSTYYAESAKGRFTISRDNSKNTLYLQMNSLRAEDTAVYYCAKSWATPIESLYYYGSDYWGQGTLVTVSS VL: SYELTQPLSVSVALRQTARITCGGNNIGSQTAQWYQQKPGQAPVLVIYANNRRPSGIPERFSGSKSGNTATLTISRAQAEDEADYYCQVWDESTQAIVFGGGTKLTVLG
3 | – | ~10 | anti-Flt-1 antibody 27H4 (antibody, human IgG1, lambda, V domains shown) VH: ELQLVESGGGLVQPGGSLRLSCAASGFTFRDYSMSWVRQAPGKGLEWVSAISWNGDSTYYAESLKGRFTISRDNAKNTLYLQMNSLRAEDTAVYYCAKSWATPIESLYYYGSDYWGQGTLVTVSS VL: SYELTQPLSVSVALGQTARITCGGNNIGSQTAQWYQQKPGQAPVLVIYANNRRPSGIPERFSGSKSGNTATLTISRAQAEDEADYYCQVWEDSTQAIVFGGGTKLTVLG
4 | – | ~6 | anti-Flt-1 antibody 27H6 (antibody, human IgG1, lambda, V domains shown) VH: ELQLVESGGGLVQPGGSLRLSCAASGFTFSDYSASWVRQAPGKGLEWVSAISWSGDSTYYAESVKGRFTIFRDNSKNTLYLQMNSLRAEDTAVYYCAKSWATPIESLYYYGSDYWGQGTLVTVSS VL: SYELTQPLSVSVALRQAAKITCGGNNIGSQTAQWYQQKPGQAPVLVIYANNRRPSGIPERFSGSKSGNTATLTISRAQAGDEADYYCQVWDGSTQAIVFGGGTKLTVLG
